Laboratory results taken from publication PMC3081424 (Archives of biochemistry and biophysics, 2011).
Where a chain is given by its changes, count along the chain named.

B1: eCFP-Gαq (natural protein, UniProt P21279 1-359, looked up)
chain: MTLESIMACCLSEEAKEARRINDEIERQLRRDKRDARRELKLLLLGTGESGKSTFIKQMRIIHGSGYSDEDKRGFTKLVYQNIFTAMQAMIRAMDTLKIPYKYEHNKAHAQLVREVDVEKVSAFENPYVDAIKSLWNDPGIQECYDRRREYQLSDSTKYYLNDLDRVADPSYLPTQQDVLRVRVPTTGIIEYPFDLQSVIFRMVDVGGQRSERRKWIHCFENVTSIMFLVALSEYDQVLVESDNENRMEESKALFRTIITYPWFQNSSVILFLNKKDLLEEKIMYSHLVDYFPEYDGPQRDAQAAREFILKMFVDLNPDSDKIIYSHFTCATDTENIRFVFAAVKDTILQLNLKEYNLV

Tests used:
Gαq = experiment: eCFP/eYFP FRET in living cells, basal; details: sites S887
eYFP-PLCβ1 S887D = target: T1, eYFP-PLCβ1 S887D (UniProt P10687 1-1216, S887D); experiment: FRET or BRET
T1 sequence (looked up): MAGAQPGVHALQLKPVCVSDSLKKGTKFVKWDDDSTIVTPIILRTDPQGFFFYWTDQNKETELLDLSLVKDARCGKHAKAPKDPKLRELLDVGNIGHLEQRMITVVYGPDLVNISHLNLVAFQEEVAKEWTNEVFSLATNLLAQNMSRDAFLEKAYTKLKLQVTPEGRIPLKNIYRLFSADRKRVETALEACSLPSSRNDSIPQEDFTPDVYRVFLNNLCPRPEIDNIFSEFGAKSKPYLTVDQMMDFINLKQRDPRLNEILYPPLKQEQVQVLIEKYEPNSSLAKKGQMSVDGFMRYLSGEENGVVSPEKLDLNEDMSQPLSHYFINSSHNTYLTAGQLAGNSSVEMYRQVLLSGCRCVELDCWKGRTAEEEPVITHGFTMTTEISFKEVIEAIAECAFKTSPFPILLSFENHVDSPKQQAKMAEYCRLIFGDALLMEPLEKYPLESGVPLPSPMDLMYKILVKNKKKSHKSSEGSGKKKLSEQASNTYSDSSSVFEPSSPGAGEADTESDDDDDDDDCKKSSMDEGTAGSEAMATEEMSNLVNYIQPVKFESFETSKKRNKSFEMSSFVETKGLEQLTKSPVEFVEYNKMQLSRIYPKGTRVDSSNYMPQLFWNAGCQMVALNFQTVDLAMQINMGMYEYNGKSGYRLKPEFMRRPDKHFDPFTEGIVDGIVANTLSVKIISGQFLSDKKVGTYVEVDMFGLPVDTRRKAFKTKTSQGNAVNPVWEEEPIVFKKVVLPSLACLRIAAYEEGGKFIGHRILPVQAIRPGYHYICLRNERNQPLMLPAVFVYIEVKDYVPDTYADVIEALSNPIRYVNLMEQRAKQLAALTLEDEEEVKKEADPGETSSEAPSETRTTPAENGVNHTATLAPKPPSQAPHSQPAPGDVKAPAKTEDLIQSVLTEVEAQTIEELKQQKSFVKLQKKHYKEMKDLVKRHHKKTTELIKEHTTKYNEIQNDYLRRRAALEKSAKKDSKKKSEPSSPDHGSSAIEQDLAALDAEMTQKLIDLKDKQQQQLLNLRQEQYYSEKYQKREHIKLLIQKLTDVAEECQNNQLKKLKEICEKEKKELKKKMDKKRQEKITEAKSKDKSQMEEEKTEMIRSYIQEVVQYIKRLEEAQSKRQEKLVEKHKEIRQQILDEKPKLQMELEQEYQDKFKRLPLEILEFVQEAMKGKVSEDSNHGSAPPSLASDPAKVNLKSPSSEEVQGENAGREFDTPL

[1] = target: T2, eYFP-PLCβ1 (wild type phospholipase Cβ1) (UniProt P10687 1-1216); experiment: FRET or BRET
T2 sequence (looked up): T1 sequence (looked up) with D887S

eYFP-PLCβ1 S887A = target: T3, eYFP-PLCβ1 S887A (UniProt P10687 1-1216, S887A); experiment: FRET or BRET
T3 sequence (looked up): T1 sequence (looked up) with D887A

| Molecule | other: FRET efficiency (Gαq; reference: wild type) | other: FRET efficiency (Gαq; reference: S887A) | FRET efficiency (eYFP-PLCβ1 S887D) [%] | FRET efficiency [1] [%] | FRET efficiency (eYFP-PLCβ1 S887A) [%] |
| --- | --- | --- | --- | --- | --- |
| PLCβ1 S887A | same; reference 38±4 | – | – | – | – |
| PLCβ1 S887D | same; reference 38±4 | same; reference 30±6 | – | – | – |
| B1 | – | – | 39 ± 3 | 38 ± 4 | 30 ± 6 |
